Activity data for four molecules are collected here from patent US20240279630, “ISOLATED CAS13 PROTEIN AND USE THEREOF” (GUANGZHOU REFORGENE MEDICINE CO., LTD., published 2024).

Holding throughout (assay): cell_activity; reversed DR/guide order
Common to all, as to conditions: tags: NLS fusion

The target of series [1] is T1, CasRfg.2 (Cas13d) (metagenome).
T1 chain: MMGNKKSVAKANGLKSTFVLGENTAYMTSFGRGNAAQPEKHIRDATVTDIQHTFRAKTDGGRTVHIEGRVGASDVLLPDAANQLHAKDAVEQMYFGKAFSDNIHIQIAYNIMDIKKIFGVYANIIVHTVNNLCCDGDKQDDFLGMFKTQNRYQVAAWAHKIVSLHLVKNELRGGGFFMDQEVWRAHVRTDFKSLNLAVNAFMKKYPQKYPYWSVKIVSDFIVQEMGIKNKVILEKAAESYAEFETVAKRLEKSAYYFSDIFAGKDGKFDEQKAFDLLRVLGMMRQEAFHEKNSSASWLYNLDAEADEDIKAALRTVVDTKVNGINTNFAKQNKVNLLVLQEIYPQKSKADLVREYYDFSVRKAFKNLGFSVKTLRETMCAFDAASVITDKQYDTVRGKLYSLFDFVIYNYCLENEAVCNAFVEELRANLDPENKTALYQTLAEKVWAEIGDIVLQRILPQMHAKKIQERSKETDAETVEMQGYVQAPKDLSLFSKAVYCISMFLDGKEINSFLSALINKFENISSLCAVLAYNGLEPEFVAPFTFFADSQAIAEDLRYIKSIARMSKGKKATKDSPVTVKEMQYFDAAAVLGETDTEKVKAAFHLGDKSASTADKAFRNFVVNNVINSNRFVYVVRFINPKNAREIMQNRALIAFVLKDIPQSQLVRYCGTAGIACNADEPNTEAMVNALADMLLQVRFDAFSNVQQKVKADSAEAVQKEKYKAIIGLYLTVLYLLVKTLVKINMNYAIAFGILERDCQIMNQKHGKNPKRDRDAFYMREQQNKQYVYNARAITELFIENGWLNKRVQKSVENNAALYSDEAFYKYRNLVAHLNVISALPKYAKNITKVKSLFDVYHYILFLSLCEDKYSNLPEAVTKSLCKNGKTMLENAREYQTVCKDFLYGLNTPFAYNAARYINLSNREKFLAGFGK
As to the method:
(§1) 293T-AQp1 cells were transfected with the verification vectors targeting the endogenous gene AQp1 mRNA of Cas13 m.2, Cas13 m.3, Cas13 m.5, CasRfg.2, Cas13 m.2-r, Cas13 m.3-r, Cas13 m.5-r, and CasRfg.2-r, and a control plasmid (which was the same as the verification vector plasmid targeting the endogenous gene AQp1 mRNA of CasRx in the aforementioned Example 5) at 800 ng in a 24-well plate. The negative control group was transfected with the CasRx-BpiI plasmid in the aforementioned Example 5.
(§2) The transfection method was as follows: [0296] 1. The cells were digested by trypsin (0.25% of Trypsin, EDTA, Thermo, 11058021), counted, and plated into a 24-well plates at 2×10⁵ cells according to 500 uL per well. [0297] 2. For each transfected sample, the complex was prepared according to the following steps: [0298] a. each well of the 24-well plate into which the cells were added, were added with 50 uL of serum-free Opti-MEM I (Thermo, 25200056) reduced serum medium for dilution of the aforementioned plasmid DNA, and mixed gently; [0299] b. it was gently mixed with Lipofectamine 2000 (Thermo, 11668019) before use, and then 1.8 uL of the Lipofectamine 2000 was diluted in each well, i.e., in 50 uL of the Opti-MEM I medium. It was incubated at room temperature for 5 minutes. Note: it was continued to perform step c within 25 minutes; [0300] c. after incubation for 5 minutes, the diluted DNA was combined with the diluted Lipofectamine 2000. They were gently mixed and incubated at room temperature for 20 minutes (the solution might be cloudy visually). Note: the complex was stabilized at room temperature for 6 hours.
(§3) At 72 h after transfection, the cells were subjected to RNA extraction with a SteadyPure Universal RNA Extraction Kit AG21017 kit, and the RNA concentration was detected with an ultramicro spectrophotometer. The RNA product was reverse transcribed by using an Evo M-MLV Mix Kit with gDNA Clean for qPCR AG11728 reverse transcription kit, and the reverse transcribed product was detected by using a SYBR Green Premix Pro Taq HS qPCR Kit (Low Rox Plus) AG11720 qPCR kit.

Series [2] addresses T2, Cas13m.2 (metagenome).
T2 chain: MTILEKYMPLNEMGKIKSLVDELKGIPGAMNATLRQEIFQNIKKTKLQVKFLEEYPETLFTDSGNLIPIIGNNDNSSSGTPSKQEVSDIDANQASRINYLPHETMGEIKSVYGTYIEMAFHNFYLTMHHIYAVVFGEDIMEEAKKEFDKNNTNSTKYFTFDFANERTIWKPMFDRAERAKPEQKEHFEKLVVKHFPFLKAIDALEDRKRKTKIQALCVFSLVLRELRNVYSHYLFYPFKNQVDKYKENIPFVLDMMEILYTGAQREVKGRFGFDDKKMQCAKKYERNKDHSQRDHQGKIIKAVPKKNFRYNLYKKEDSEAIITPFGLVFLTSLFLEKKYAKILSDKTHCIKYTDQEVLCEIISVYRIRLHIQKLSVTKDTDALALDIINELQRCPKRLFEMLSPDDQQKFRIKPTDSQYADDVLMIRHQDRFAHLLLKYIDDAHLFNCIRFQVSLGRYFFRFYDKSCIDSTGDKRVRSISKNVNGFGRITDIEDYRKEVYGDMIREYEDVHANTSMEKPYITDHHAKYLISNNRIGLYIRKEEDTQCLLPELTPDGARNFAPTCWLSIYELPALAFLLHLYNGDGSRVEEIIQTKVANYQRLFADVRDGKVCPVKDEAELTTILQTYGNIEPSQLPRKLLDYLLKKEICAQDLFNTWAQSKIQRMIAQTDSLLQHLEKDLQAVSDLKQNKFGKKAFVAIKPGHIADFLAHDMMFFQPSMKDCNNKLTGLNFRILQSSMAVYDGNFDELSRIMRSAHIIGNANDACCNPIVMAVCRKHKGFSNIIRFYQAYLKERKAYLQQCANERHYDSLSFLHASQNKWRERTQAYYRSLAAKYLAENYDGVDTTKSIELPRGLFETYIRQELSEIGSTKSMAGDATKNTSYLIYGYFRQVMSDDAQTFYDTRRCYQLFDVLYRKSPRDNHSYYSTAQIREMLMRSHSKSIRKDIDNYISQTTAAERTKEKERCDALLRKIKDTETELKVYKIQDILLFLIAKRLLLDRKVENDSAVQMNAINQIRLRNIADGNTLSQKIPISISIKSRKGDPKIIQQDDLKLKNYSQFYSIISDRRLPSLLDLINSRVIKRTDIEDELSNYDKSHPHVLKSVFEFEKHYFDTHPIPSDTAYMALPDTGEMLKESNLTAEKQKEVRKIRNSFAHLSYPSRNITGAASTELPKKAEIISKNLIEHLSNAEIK
The procedure:
as §1, §2, §3

The target of series [3] is T3, Cas13m.3 (uncultured Bacteroidetes bacterium).
T3 chain: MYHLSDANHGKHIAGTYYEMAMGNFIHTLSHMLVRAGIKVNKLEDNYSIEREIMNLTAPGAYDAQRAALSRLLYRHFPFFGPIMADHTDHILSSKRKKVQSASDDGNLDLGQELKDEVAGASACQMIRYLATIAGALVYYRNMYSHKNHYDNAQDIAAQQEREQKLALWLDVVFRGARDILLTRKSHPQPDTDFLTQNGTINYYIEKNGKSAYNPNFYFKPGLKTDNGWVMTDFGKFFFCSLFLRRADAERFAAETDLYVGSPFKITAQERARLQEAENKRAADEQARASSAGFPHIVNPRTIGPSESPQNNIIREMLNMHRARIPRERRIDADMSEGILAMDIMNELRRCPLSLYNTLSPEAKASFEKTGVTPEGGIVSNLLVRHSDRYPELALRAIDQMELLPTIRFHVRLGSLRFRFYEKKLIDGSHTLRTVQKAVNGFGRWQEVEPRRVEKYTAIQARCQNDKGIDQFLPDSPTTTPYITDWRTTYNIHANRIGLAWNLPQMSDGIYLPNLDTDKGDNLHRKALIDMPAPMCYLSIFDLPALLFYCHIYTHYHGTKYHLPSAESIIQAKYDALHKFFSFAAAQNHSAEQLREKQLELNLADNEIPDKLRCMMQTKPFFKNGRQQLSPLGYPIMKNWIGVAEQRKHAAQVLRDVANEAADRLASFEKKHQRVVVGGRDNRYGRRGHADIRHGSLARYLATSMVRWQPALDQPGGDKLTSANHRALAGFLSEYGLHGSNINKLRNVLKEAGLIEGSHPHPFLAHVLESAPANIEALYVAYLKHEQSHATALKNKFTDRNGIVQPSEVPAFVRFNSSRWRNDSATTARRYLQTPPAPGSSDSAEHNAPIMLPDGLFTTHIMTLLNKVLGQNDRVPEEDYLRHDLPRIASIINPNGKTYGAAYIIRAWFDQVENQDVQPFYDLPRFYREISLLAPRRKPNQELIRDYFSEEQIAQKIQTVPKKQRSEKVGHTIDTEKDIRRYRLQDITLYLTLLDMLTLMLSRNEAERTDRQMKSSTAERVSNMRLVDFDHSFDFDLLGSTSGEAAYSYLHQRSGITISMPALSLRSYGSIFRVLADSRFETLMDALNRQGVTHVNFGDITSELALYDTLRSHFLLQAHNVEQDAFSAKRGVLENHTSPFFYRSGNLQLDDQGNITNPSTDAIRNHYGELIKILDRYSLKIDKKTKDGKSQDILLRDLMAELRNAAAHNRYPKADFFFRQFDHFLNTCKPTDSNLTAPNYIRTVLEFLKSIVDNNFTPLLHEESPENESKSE
As to the method: as §1, §2, §3

The target in series [4] is T4, Cas13m.5 (Bacteroidetes bacterium).
T4 chain: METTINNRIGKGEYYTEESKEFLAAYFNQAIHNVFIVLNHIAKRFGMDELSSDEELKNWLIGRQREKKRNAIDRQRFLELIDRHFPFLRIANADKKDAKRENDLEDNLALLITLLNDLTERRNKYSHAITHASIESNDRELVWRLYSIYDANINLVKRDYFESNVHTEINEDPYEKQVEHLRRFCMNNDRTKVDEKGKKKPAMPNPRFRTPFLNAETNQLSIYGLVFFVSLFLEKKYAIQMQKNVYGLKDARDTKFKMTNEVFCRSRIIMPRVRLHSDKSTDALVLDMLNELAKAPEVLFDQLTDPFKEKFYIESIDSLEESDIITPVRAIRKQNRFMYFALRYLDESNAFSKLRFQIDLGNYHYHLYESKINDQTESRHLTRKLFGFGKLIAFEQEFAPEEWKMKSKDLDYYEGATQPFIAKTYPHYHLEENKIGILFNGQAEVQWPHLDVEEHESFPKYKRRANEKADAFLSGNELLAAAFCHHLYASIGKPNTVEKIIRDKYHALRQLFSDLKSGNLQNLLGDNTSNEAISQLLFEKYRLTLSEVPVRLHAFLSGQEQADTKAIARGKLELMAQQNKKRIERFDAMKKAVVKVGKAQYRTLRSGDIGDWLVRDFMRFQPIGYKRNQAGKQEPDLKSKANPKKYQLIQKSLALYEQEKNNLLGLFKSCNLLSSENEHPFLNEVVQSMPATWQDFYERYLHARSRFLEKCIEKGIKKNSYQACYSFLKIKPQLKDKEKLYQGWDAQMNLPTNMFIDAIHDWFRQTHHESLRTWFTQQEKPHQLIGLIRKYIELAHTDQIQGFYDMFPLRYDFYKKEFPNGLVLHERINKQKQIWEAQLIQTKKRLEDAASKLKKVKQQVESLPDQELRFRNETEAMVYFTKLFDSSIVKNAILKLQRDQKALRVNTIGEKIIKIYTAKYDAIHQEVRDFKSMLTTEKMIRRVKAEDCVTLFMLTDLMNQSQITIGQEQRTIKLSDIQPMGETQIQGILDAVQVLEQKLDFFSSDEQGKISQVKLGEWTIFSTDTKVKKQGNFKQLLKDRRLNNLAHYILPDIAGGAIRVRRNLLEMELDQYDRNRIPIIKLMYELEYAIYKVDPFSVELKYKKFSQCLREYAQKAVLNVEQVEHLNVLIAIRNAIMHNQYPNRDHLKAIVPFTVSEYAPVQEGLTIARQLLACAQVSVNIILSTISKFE
As to the method: as §1, §2, §3

B1: AQp1 gRNA CasRfg.2-r (guide-DR) ; AQp1 mRNA site (20 nt guide) (ssRNA ; ssRNA)
RNA 1: GAAGACAAAGAGGGUCGUGGGGUUUUACACCCGUGUAAAACUACACAGUUCUAAAAC
RNA 2: CCACGACCCUCUUUGUCUUC
In series [1], B1 had an activity of 0.67 relative mRNA level.

B2: AQp1 gRNA Cas13m.2-r (DR-guide) ; AQp1 mRNA site (20 nt guide) (ssRNA ; ssRNA)
RNA 1: GUUGUAGAUGACCUCGUUUUGGAGGGGAAACACAACGAAGACAAAGAGGGUCGUGG
RNA 2: CCACGACCCUCUUUGUCUUC
B2 gave an activity in series [2] of 0.83 relative mRNA level.

B3: AQp1 gRNA Cas13m.3-r (DR-guide) ; AQp1 mRNA site (20 nt guide) (ssRNA ; ssRNA)
RNA 1: GUUGUAGAAGCCGUUCAUUCGGGACGGUAUGACAACGAAGACAAAGAGGGUCGUGG
RNA 2: CCACGACCCUCUUUGUCUUC
In series [3], B3 gave an activity of 0.78 relative mRNA level.

B4: AQp1 gRNA Cas13m.5-r (DR-guide) ; AQp1 mRNA site (20 nt guide) (ssRNA ; ssRNA)
RNA 1: GUUGUGUGUGCCUUUCAAAUUGAAGGCGUUCCCAACGAAGACAAAGAGGGUCGUGG
RNA 2: CCACGACCCUCUUUGUCUUC
In series [4], B4 registered an activity of 0.74 relative mRNA level.
